The target of assay [1] is BDD rFVIII (B domain deleted recombinant Factor VIII) (human) (UniProt P00451). The assay is described as follows: SPR (ProteOn XPR36), mean of triplicate.
In assay [2] the target is rFVIIIFc. Put plainly: SPR (ProteOn XPR36), mean of triplicate.
Assay [3] concerns the target BDD rFVIII (B domain deleted recombinant Factor VIII) (human) (UniProt P00451). The assay is described as follows: method not printed on the sheet or in the legend (affinities of Example 3 are by SPR); SD 0.0073 printed in the same row. Background: SPR reads the build-up and loss of mass on a sensor chip optically.
For assay [4], the target named is rFVIIIFc. The assay is described as follows: method not printed on the sheet or in the legend (affinities of Example 3 are by SPR); SD 0.0023 printed in the same row.
Assay [5] deals with BDD rFVIII (B domain deleted recombinant Factor VIII) (human) (UniProt P00451). Put plainly: SPR, ProteOn XPR36; run 3 of 3 (bottom panel) [continued].
The target in assay [6] is rFVIIIFc. Described as above.
Assay [7] addresses BDD rFVIII (B domain deleted recombinant Factor VIII) (human) (UniProt P00451). The assay is described as follows: SPR, ProteOn XPR36; run 2 of 3 (middle panel) [continued].
Assay [8] deals with rFVIIIFc. The assay is described as above.
For assay [9], the target named is BDD rFVIII (B domain deleted recombinant Factor VIII) (human) (UniProt P00451). Put plainly: SPR, ProteOn XPR36; run 1 of 3 (top panel) [continued].
For assay [10], the target named is rFVIIIFc. The description is as above.
Assay [11] addresses BDD rFVIII (B domain deleted recombinant Factor VIII) (human) (UniProt P00451). Put plainly: SPR, ProteOn XPR36; run 2 of 3 (middle panel).
Assay [12] deals with rFVIIIFc. The assay is described as follows: SPR, ProteOn XPR36; run 2 of 3 (middle panel).
Assay [13] has as its target BDD rFVIII (B domain deleted recombinant Factor VIII) (human) (UniProt P00451). The assay is described as follows: SPR, ProteOn XPR36; run 3 of 3 (bottom panel).
The target in assay [14] is rFVIIIFc. Put plainly: SPR, ProteOn XPR36; run 3 of 3 (bottom panel).
In assay [15] the target is BDD rFVIII (B domain deleted recombinant Factor VIII) (human) (UniProt P00451). Put plainly: SPR, ProteOn XPR36; run 1 of 3 (top panel).
For assay [16], the target named is rFVIIIFc. The assay is described as follows: SPR, ProteOn XPR36; run 1 of 3 (top panel).

Sequence of UniProt P00451 (P00451 other isoform, or with tags, fused parts or gaps): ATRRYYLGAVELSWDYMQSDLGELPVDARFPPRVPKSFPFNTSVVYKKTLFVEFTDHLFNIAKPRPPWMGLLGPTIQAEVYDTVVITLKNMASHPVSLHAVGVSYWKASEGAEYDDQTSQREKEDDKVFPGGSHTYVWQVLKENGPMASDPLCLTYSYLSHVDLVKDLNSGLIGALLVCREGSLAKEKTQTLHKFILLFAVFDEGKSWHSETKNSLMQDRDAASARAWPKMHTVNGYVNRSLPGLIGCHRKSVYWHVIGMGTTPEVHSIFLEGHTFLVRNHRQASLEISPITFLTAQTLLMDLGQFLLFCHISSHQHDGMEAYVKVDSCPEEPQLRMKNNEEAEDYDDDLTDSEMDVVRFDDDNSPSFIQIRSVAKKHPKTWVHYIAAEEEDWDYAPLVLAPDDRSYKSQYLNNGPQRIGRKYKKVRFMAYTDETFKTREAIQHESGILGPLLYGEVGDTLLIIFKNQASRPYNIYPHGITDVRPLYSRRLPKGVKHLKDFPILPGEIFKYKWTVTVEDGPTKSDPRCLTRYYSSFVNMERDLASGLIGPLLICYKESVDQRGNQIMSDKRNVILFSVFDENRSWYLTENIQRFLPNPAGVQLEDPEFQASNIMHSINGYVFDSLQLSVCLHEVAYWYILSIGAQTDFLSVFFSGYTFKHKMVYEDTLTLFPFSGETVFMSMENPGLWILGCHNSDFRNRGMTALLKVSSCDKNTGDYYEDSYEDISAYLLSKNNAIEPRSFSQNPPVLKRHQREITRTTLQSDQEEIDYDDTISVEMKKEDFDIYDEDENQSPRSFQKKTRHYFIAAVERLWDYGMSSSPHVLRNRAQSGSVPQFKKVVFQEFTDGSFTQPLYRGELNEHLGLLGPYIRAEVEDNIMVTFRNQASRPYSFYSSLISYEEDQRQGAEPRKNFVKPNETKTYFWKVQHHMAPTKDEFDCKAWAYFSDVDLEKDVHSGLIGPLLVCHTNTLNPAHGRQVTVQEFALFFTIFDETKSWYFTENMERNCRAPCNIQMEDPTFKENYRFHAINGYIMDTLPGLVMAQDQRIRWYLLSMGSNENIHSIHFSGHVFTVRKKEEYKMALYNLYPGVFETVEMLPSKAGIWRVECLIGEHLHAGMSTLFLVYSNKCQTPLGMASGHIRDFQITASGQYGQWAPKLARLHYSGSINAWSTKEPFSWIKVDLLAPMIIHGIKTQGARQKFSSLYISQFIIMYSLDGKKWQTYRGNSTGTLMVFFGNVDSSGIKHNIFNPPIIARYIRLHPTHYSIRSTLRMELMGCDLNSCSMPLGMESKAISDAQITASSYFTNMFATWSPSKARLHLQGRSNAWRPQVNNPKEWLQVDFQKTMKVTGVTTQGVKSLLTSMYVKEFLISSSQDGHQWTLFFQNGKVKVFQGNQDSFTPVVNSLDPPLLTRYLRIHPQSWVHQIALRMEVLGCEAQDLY

On to ESH4 (antibody), for which the Kd (usually the constant that tells how readily two partners part at equilibrium) in [1] was determined as 248 pM; in the assay with rFVIIIFc [2] it was 277 pM.
As to ESH8 (antibody), the equilibrium dissociation constant (Kd) in assay [1] was determined as 104 pM; with rFVIIIFc [2], 142 pM.
Regarding ESH8 Fab, the results for the Kd (in [3]; in the assay with rFVIIIFc [4]) were 104 pM and 142 pM, respectively.
As to GMA012 (antibody), the Kd was 325 pM in assay [1] and 474 pM in the assay with rFVIIIFc [2].
As to GMA8011 (antibody), the Kd stood at 101 pM in assay [5]; 90.2 pM in the assay with rFVIIIFc [6]; 89.7 pM in [7]; 80.4 pM with rFVIIIFc [8]; 85.5 pM in [9]; 91.3 pM with rFVIIIFc [10]. Also, the Kd in [1] was 92.1 pM; with rFVIIIFc [2] it was 87.3 pM. In addition, the koff (usually a measure of how fast the partners let go of each other) worked out at 0.000143 s⁻¹ in assay [5]; 0.000127 s⁻¹ in the assay with rFVIIIFc [6]; 0.000138 s⁻¹ in [7]; 0.00012 s⁻¹ with rFVIIIFc [8]; 0.000131 s⁻¹ in assay [9]; 0.000133 s⁻¹ with rFVIIIFc [10]. The association rate constant (kon) (in general, the second-order rate constant of association) in [5] was 1.42e+06 M⁻¹ s⁻¹; in the assay with rFVIIIFc [6], 1.4e+06 M⁻¹ s⁻¹; in assay [7] it was 1.54e+06 M⁻¹ s⁻¹; with rFVIIIFc [8] it was 1.49e+06 M⁻¹ s⁻¹; in [9], 1.53e+06 M⁻¹ s⁻¹; with rFVIIIFc [10], 1.46e+06 M⁻¹ s⁻¹.
In the case of GMA8014 (antibody), the Kd in assay [11] is 117 pM; in the assay with rFVIIIFc [12], 139 pM; in assay [13], 114 pM; in the assay with rFVIIIFc [14] it was 120 pM; in assay [1] it was 118 pM; in the assay with rFVIIIFc [2], 118 pM. Also, the results for the Kd (in assay [15]; in the assay with rFVIIIFc [16]) were 126 pM and 127 pM, respectively. For the same substance, the koff in assay [11] is 0.000131 s⁻¹; with rFVIIIFc [12], 0.000104 s⁻¹; in assay [13] it was 0.000119 s⁻¹; in the assay with rFVIIIFc [14], 0.000104 s⁻¹; in assay [15], 0.000127 s⁻¹; in the assay with rFVIIIFc [16], 0.000103 s⁻¹. Besides, the kon came out at 1.12e+06 M⁻¹ s⁻¹ in [11]; 746000 M⁻¹ s⁻¹ in the assay with rFVIIIFc [12]; 1.04e+06 M⁻¹ s⁻¹ in assay [13]; 865000 M⁻¹ s⁻¹ with rFVIIIFc [14]; 1e+06 M⁻¹ s⁻¹ in assay [15]; 809000 M⁻¹ s⁻¹ with rFVIIIFc [16].
Turning to GMA8020 (antibody), the Kd in assay [5] worked out at 70 pM; in the assay with rFVIIIFc [6], 66 pM; in assay [7] it was 72.2 pM; in the assay with rFVIIIFc [8], 74.3 pM; in assay [9], 77 pM; with rFVIIIFc [10], 64.7 pM. Besides, the results for the Kd (in [1]; with rFVIIIFc [2]) were 73.1 pM and 68.3 pM, respectively. Further, the koff in [5] was 0.000119 s⁻¹; with rFVIIIFc [6] it was 0.00011 s⁻¹; in assay [7] it was 0.000124 s⁻¹; in the assay with rFVIIIFc [8], 0.000118 s⁻¹; in [9], 0.000127 s⁻¹; with rFVIIIFc [10], 0.000102 s⁻¹. For the same substance, the kon is 1.7e+06 M⁻¹ s⁻¹ in assay [5]; 1.66e+06 M⁻¹ s⁻¹ with rFVIIIFc [6]; 1.72e+06 M⁻¹ s⁻¹ in assay [7]; 1.59e+06 M⁻¹ s⁻¹ with rFVIIIFc [8]; 1.65e+06 M⁻¹ s⁻¹ in assay [9]; 1.58e+06 M⁻¹ s⁻¹ in the assay with rFVIIIFc [10].

The values above are taken from patent publication US20160130361A1.
